Values quoted from earlier work, collected in publication PMC11449392.

Target: Abl PRM (Homo sapiens) (UniProt P00519)
UniProt P00519, sequence (P00519 whole entry, looked up): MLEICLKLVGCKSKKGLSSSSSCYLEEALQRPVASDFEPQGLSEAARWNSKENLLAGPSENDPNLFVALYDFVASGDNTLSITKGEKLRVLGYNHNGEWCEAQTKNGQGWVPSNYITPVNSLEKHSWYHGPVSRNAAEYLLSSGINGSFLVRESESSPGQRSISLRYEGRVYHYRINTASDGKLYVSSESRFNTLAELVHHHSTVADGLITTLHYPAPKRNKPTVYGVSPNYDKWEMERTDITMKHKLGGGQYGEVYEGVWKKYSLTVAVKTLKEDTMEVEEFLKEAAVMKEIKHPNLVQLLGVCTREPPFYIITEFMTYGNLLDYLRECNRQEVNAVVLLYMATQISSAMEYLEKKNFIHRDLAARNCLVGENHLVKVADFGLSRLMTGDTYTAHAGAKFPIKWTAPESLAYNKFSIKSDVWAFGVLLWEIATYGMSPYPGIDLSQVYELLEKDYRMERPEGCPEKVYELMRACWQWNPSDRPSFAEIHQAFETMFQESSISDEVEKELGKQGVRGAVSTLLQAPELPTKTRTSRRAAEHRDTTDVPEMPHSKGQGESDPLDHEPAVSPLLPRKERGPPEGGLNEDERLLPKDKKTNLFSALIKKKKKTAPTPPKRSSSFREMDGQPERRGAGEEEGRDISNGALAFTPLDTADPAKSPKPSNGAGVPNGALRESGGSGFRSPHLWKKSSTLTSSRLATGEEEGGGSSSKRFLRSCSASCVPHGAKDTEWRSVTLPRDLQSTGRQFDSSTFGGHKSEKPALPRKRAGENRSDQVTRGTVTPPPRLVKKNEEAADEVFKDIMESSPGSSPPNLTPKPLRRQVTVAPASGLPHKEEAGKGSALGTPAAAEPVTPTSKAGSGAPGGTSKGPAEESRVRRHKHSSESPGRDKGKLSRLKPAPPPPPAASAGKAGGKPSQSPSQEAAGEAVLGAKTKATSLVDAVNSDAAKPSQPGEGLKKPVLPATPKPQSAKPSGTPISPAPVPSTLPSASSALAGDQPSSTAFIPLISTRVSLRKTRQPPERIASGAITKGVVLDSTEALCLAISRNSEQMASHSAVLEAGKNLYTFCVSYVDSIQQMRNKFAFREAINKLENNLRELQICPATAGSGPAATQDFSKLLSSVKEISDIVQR

Nck second SH3 domain (from UniProt P16333)
Kd: 350 µM
